Experiments:
HCT116 (KRas G13D) = test: CCK-8 cell proliferation experiment, HCT116; conditions: 10 and 20 μg/mL, 24 hours
Text: (§1) CCK-8 was a highly sensitive and non-radioactive colorimetric method for determining the number of living cells in the cell proliferation or toxicity test.

HT29 (KRas wt) = test: CCK-8 cell proliferation experiment, HT29; conditions: 10 and 20 μg/mL, 24 hours
Text: as §1

[1] = biological target: T1, wild-type KRas protein in HT29 (KRas wt) cells (Homo sapiens, UniProt P01116); test: Western blot of KRas degradation in HT29 cells; assay type: cell-based; conditions: for degradation of KRas protein, concentration-dependency (western blot): 0-20 μg/ml
T1 construct: host or cells: HT29
Protocol: • (1) Source and culture of cells: human colorectal cancer cells HT29 (KRas wt) and human colorectal cancer cells HCT116 (KRas G13D) came from American Type Culture Collection (ATCC) (item number: HTB-38, CCL-247). HT29 and HCT116 cells were all cultured in the 1640 culture medium added with 10% fetal bovine serum (FBS), under 5% CO2 at 37° C. • (2) The colorectal cancer cells HCT116 and HT29 were respectively spread in six-well plates, 500,000 cells per well. […] 2,000 μL of DMEM complete culture solution was added into each well and mixed evenly, and the cells were cultured at 37° C. for 24 hours. • (3) The cells were cleaned with PBS twice, and 0.5 mL of 0.25% pancreatin was added into each well to digest the cells and make the cells fall off from the culture dish wall. Then, the digestion was stopped with 1 mL of complete culture solution per well, the cell suspension was collected into a 1.5 mL EP tube, and centrifuged at the room temperature and 300 g for 3 minutes to collect the cells. The cells were resuspended with 1 mL of PBS, and repeatedly centrifuged for one time. • (4) The supernatant was removed, and 100 μL of lysate was added in each group (item number: P0013G; purchased from Beyotime Biotechnology Company). The cells were lysed on ice, vortically vibrated every 5 minutes, and centrifuged at 4° C. and 12,000 pm for 30 minutes after being lysed for 30 minutes, and the supernatant was collected into a new 1.5 mL EP tube. • (5) The protein concentration was measured by the BCA method, and 30 μg of protein was taken from each group for SDS denaturation gel electrophoresis, transferred and blocked with 5% skim milk for 1 hour. Then, KRas (source: Proteintech; item number: 12063-1-AP) and β-tublin (source: Proteintech; item number: 10094-1-AP) primary antibodies were added by a ratio of 1:2,000, and shaken overnight at 4° C. to remove the antibodies. The membrane was washed with TBST for three times, 10 minutes each time. The rabbit secondary antibody labeled with corresponding HRP (source: TransGen Company; item number: HS101-01) was added for dilution with the ratio of 1:3,000 and incubated in shaking at the room temperature for 1 hour, and the membrane was cleaned with TBST for three times, 10 minutes each time. The antibody was luminously developed in the dark room of the ELC luminescent kit. Concentrations of all the primary antibodies were 1:2,000 (1 […] diluted in 2,000 μL of primary antibody diluent).
The protein concentrations were measured by BCA, and 30 μg of protein was taken respectively and stored in a refrigerator at −20° C. for later use. • (3) Western blot experiment was carried out on collected protein samples.

KRas protein = biological target: T2, KRas protein (Homo sapiens, UniProt P01116); test: ELISA of binding level to the KRas protein in vitro; conditions: coated at 1 ng/μL, KRas 6.25-100 μg, compared with the control group
T2 construct: made in house
Protocol: 100 μL of coating solution was added into each well of 96-well ELISA plate to coat overnight at 4° C. • (3) Blocking: the ELISA plate was cleaned with a phosphate buffer solution (PBS) (PBS formula: 4 g of NaCl, 0.1 g of KCl, 1.815 g of disodium hydrogen phosphate dodecahydrate, and 0.12 g of […], dissolved in 400 mL of ultrapure water, with a constant volume of 500 mL for use) for 5 minutes each time. 300 μL of 5% (w/v) bovine serum albumin was added into each well, and blocked at 37° C. for 2 hours. • (4) Adding of the purified protein KRas: 6.25 μg, 12.5 μg, 25 μg, 50 μg and 100 μg of purified protein were respectively pre-mixed and diluted in 200 μL of PBS, and the diluted KRas protein was added into the wells in sequence, and slowly shaken at the room temperature for 5 hours. […] Main steps of the example were as follows: • (1) Coupling of ligand: the target coupling amount was calculated according to the following formula: […]

Molecule	inhibition of cell growth (CCK-8) (HCT116 (KRas G13D))	inhibition of cell growth (CCK-8) (HT29 (KRas wt))	degradation of KRas, influence of administration time ([1]; 10 and 20 μg/mL, 1, 2, 6, 12, 24 hours, cell line not restated (FIG. 12))	degradation of KRas protein, concentration-dependency (western blot) ([1]; HT29, 24 hours)	degradation effect on KRas at 10 ug/mL and 20 ug/mL ([1]; HT29, FIG. 11, 24 hours)	interaction with the KRas protein (ELISA, OD450-OD630) (KRas protein)
TKD: fusion protein: tumour-cell-penetrating peptide BR2, anti-KRas nanobody VHH and lysosome recognition peptide CTM; SEQ ID NO.4 (protein) RAGLQFPVGRLLRRLLRDVQLQESGGGLVQAGGSLRLSCVASGRTFSTYPTGWFRQAPGKEREFVARINLSGGITNYADSVKGRFTISRDNAKNTVYLQMNSLKPEDTAVYYCGGGSTTWAGGIPTNFDYWGQGTQVTVSSGRKFERQKILDQRFFE	could significantly inhibit growth	could significantly inhibit growth	could rapidly degrade KRas, and the degradation was time-dependent within a certain range	could cause degradation of expression levels of the wild-type and mutant-type KRas proteins in the colorectal cancer cells, and the degradation degree was increased with the increase of the concentration	the degradation effect on KRas was obvious	had a stronger interaction with the KRas protein
TKDm: control molecule of TKD with mutated CTM fragment (CTMmt) which could not be recognized by a lysosome; SEQ ID NO.5 (protein) RAGLQFPVGRLLRRLLRDVQLQESGGGLVQAGGSLRLSCVASGRTFSTYPTGWFRQAPGKEREFVARINLSGGITNYADSVKGRFTISRDNAKNTVYLQMNSLKPEDTAVYYCGGGSTTWAGGIPTNFDYWGQGTQVTVSSGRKFERAKILDARFFE	could not achieve the same effect	could not achieve the same effect		could not play a similar role		had a stronger interaction with the KRas protein

From patent US12508311B2, “Fusion protein, and preparation method and use thereof” (SUN YAT-SEN UNIVERSITY, priority 2021, dated 2025)
